The source of these data is patent publication US10973762B2, “Active-targeting-type polymer derivative, composition containing said polymer derivative, and uses of said polymer derivative and said composition” (Nippon Kayaku Kabushiki Kaisha, priority 2016, dated 2021).

In one series the target is T1, integrin αVβ3 (Mus musculus, UniProt O54890+P43406).
T1 construct: purchased R&D Systems, Inc
T1 sequence (P43406 31-988 limits assumed): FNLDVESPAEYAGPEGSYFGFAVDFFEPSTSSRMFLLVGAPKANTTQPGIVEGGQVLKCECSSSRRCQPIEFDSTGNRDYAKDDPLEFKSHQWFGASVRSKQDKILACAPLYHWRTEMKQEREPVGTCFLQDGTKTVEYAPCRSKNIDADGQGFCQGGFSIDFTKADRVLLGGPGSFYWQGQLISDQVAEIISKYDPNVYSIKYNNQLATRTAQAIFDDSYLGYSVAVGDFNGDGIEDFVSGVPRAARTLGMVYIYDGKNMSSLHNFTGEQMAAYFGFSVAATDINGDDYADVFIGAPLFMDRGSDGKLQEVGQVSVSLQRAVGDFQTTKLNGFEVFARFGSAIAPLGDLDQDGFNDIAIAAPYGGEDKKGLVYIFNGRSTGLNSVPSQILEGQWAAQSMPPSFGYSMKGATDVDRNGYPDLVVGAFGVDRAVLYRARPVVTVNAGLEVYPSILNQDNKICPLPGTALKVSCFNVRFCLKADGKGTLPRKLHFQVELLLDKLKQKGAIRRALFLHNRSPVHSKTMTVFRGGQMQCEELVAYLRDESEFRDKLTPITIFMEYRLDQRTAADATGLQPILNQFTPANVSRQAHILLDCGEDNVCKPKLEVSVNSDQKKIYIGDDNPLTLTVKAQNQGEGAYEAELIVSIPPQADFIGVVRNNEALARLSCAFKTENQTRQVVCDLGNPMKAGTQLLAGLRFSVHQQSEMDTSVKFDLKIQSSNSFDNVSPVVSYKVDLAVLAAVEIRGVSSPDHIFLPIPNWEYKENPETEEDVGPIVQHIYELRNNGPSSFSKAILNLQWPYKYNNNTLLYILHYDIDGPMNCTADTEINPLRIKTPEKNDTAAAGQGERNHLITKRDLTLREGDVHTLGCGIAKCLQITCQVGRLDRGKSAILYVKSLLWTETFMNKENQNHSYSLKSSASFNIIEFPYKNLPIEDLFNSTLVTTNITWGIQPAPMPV
T1 sequence (O54890 26-717 limits assumed): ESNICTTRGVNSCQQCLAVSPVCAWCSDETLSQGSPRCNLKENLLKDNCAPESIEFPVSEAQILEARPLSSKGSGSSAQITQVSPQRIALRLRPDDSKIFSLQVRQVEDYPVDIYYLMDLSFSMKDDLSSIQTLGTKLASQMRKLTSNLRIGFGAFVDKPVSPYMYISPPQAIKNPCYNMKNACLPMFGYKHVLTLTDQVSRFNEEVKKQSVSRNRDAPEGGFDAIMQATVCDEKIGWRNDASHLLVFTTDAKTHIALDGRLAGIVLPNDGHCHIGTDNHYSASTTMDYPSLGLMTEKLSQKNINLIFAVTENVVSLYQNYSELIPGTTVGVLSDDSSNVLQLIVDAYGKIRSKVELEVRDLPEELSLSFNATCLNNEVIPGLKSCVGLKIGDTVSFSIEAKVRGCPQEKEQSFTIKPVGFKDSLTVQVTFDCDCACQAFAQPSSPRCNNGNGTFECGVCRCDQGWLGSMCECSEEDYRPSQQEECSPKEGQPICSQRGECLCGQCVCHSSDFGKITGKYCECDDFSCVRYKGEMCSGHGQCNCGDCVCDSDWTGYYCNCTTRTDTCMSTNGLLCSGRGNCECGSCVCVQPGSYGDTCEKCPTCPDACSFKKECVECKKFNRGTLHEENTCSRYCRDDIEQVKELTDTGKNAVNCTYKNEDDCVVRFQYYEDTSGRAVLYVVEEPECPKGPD
Description: Integrin binding assay (inhibition of biotinylated vitronectin binding). Conditions: dilution series, absorbance at 450 nm. On the procedure: 100 μL each of 1 μg/mL Recombinant Mouse Integrin alpha V beta 3 Protein (R&D Systems, Inc.) produced with PBS(−) was added to a 96-well Costar high capacity binding plate, and the plate was left to stand overnight at 4° C. to thereby bind integrin αVβ3 to the bottom face of the wells. Subsequently, integrin αVβ3 in the wells was removed by suctioning, and 200 μL of a Blocking/Binding buffer (50 mM Tris HCl at pH 7.4, 100 mM NaCl, 2 mM CaCl2, 1 mM MgCl2, 1 mM MnCl2, 1% BSA) was added to each well. Blocking was performed at an interval of one hour at room temperature.
100 μL of biotinylated vitronectin (1 μg/mL) obtained by biotinylated human recombinant vitronectin (Wako Pure Chemical Industries, Ltd.) was added in advance into each well using Biotin Labeling Kit-NH2 (Dojindo Molecular Technologies, Inc.), and the plate was left to stand at room temperature for 3 hours. Subsequently, the wells were washed three times using 200 μL of Blocking/Binding buffer, and 100 μL of streptavidin-HRP (GE Healthcare) diluted 10,000 times with the Blocking/Binding buffer was added to each well. The mixture was left to stand for one hour at room temperature. The wells were washed two times using 200 μL of the Blocking/Binding buffer. […]
Within 30 minutes after the addition, the absorbance at 450 nm was measured, and the binding ratio of biotinylated vitronectin to integrin αVβ3 was calculated.

Series [1] in a line: Average particle size, single nanoparticle size analyzer IG-1000. Format: physicochemical. On the procedure:
The measurement of the average particle size of the compositions including block copolymers of Examples 3 to 10 and Comparative Examples 1 to 6 was carried out using a single nanoparticle size analyzer, IG-1000, manufactured by Shimadzu Corp. (measurement temperature: 25° C., light intensity at t=0: 100 to 200).
Regarding a sample for measuring the average particle size, a solution produced to have a concentration of 2 mg/mL or 5 mg/mL in terms of the composition weight and filtered through a 0.45-μm membrane filter, was used.

Series [2] in a line: Test Example 4: tissue distribution in kidney (fluorescence of sections). Format: in vivo, nude mice. The settings on record: i.v. 5 mg/kg in terms of fluorescent substance. Here is the method: (§1) A suspension of cultured cancer cell human glioma U87MG was subcutaneously transplanted on the dorsal sides of nude mice using an injection needle-attached syringe. Example 7, Comparative Example 2, and Comparative Example 3 were dissolved in a 5% glucose injectable solution, and each of the solutions was intravenously administered a single time in an amount of 5 mg/kg in terms of 2-(2-aminoethoxy)-9-(diethylamino)-5H-benzo[a]phenoxazin-5-one.
(§2) After one hour and after 24 hours from the administration, the mice were exsanguinated under isoflurane anesthesia, and frozen embedded sections of extracted tumor and kidney were produced. Fluorescence derived from 2-(2-aminoethoxy)-9-(diethylamino)-5H-benzo[a]phenoxazin-5-one in the administered composition was observed.
(§3) Furthermore, based on those images, the luminance was calculated using Image-Pro Premier (Media Cybernetics, Inc.), and the values of luminance of tumor tissue sections are shown in FIG. 9, while the values of luminance of kidney tissue sections are shown in FIG. 11.

The nature of series [3]: Test for drug releasability into phosphate buffer solution. Format: physicochemical. Conditions: phosphate buffer solution pH 7.4, 37° C., 6 hours, 1.0 mg/mL, absence of enzyme. On the procedure: Example 7, Example 8, and Comparative Example 3 were respectively dissolved in a phosphate buffer solution (pH 7.4) at a concentration of 1.0 mg/mL in terms of the composition weight, and the solutions were left to stand at a constant temperature of 37° C. The amount of 7-ethyl-10-hydroxycamptothecin (EHC) released was measured over time by HPLC, and the proportion of the amount of EHC released with respect to the total amount of EHC in the compound used was determined.

Another series has as its system human glioma U87MG. Description: Test Example 4: tissue distribution in tumor (fluorescence of sections). The settings on record: one hour after i.v. administration, 5 mg/kg in terms of fluorescent substance. Format: in vivo, nude mice. On the procedure:
as §1, §2, §3

For the substance “4-phenyl-1-butanol-bonded and 2-(2-aminoethoxy)-9-(diethylamino)-5H-benzo[a]phenoxazin-5-one-bonded product of polyethylene glycol (10 kilodaltons)-polyglutamic acid (21.0 polymerizations) block copolymer [Comparative Example 1]”, the “inhibition of binding of vitronectin and integrin αVβ3” value on integrin αVβ3 was “not recognized”.
In series [1] (5 mg/mL), “7-ethyl-10-hydroxycamptothecin (EHC)-bonded and 2-(2-aminoethoxy)-9-(diethylamino)-5H-benzo[a]phenoxazin-5-one-bonded product of polyethylene glycol (12 kilodaltons)-polyglutamic acid (22.0 polymerizations) block copolymer [Comparative Example 2]” displayed an average particle size of 23 nm. Moreover, the “distribution of fluorescence in kidney” value in series [2] is listed as “fluorescence was not recognized in areas other than in the blood vessels”.
Substance “7-ethyl-10-hydroxycamptothecin (EHC)-bonded and 2-(2-aminoethoxy)-9-(diethylamino)-5H-benzo[a]phenoxazin-5-one-bonded product of polyethylene glycol (2 kilodaltons)-polyglutamic acid (7.59 polymerizations) block copolymer [Comparative Example 3]” registered an average particle size in series [1] (2 mg/mL) of 13 nm. Moreover, the “EHC release (proportion of EHC released with respect to total EHC)” value in series [3] came to 61%. The “distribution of fluorescence in tumor” value in the series on human glioma U87MG is “penetrated into the entire tumor compared to Comparative Example 2”. Also, the “distribution of fluorescence in kidney” value in series [2] was “fluorescence was observed in the blood vessels and the renal tubules”.
